The results in this text go back to patent publication US7427404.

This assay concerns the target monoclonal anti-S1 antibody 1B7. The assay can be described thus: competition RIA: 1B7 coated on plate, 125I-PT displaced by unlabelled toxin.

As for “PT-9K (from UniProt P04978 28-226; P04979 29-227; P0A3R5 43-152; P04981 35-133)”, the Ka turned out to be 8.9e+08 M⁻¹.
